Experiments:
[1] = target: T1, MASP-2 in human serum (human, UniProt O00187 16-686); test: cell-based or functional assay
[2] = target: T1, MASP-2 in human serum; test: cell-based or functional assay; remark: listed apart in the source
[3] = target: T2, mouse MASP-2 D4-6 recombinant protein (mouse, UniProt Q91WP0 298-685); test: SPR Biacore T200, Flag-tagged Fab captured via anti-Flag antibody on Protein A chip, antigen as analyte, 1:1 fit
T2 construct: Made 'similarly' to the human protein (N-terminal his6 tag)
Protocol: (§1) The surface plasmon resonance (SPR/Biacore T200) technique was used to capture the anti-Flag antibody with Protein A chip. 10 μg/ml purified Fab antibody containing Flag tag was captured on the chip surface, with a capture time of 40 sec and a flow rate of […]. The chip was washed with buffer until the baseline leveled off, then gradient-diluted MASP-2 antigens were injected as the analytes successively to determine the affinity between Fab and different species antigens. The data were fitted by Biacore T200 Evaluation software 3.1 software in Langmuir 1:1 kinetics mode.

[4] = target: T3, Cynomolgus monkey MASP-2 D4-6 recombinant protein (Cynomolgus monkey, UniProt O00187 298-686 (human entry), limits assumed); test: as above
T3 construct: Made 'similarly' to the human protein (N-terminal his6 tag)
Protocol: as §1

[5] = target: T4, human MASP-2 D4-6 recombinant protein (human, UniProt O00187 298-686); test: as above
T4 construct: his6 tag fused at the N-terminus, made in HEK293E; also called enzymatic activity domains CCP1-CCP2-SP of human MASP-2
Protocol: as §1

[6] = target: T5, rat MASP-2 D4-6 recombinant protein (rat, UniProt Q9JJS8 298-685); test: as above
T5 construct: Made 'similarly' to the human protein (N-terminal his6 tag)
Protocol: as §1

[7] = target: T2, mouse MASP-2 D4-6 recombinant protein; test: SPR Biacore T200, antibody on Protein A chip, antigen as analyte, 1:1 fit
Protocol: (§2) Surface plasmon resonance technology (SPR/Biacore T200) was used to capture 0.1 μg/ml of the antibody on the surface of the Protein A chip, with a capture time of 40 seconds and a flow rate of 10 μl/min. The chip was washed with buffer until the baseline leveled off, then gradient-diluted antigen was flowed through the chip at the flow rate of 30 μl/min, with a binding time of 120 sec and a dissociation time of 600 sec. The equilibrium dissociation constant (KD) was obtained by fitting in Langmuir 1:1 kinetics mode.

[8] = target: T3, Cynomolgus monkey MASP-2 D4-6 …; test: as above
Protocol: as §2

[9] = target: T4, human MASP-2 D4-6 recombinant protein; test: as above
Protocol: as §2

[10] = target: T2, mouse MASP-2 D4-6 recombinant protein; test: ELISA, antigen coated, chimeric IgG titrated, anti-human Fc-HRP
[11] = target: T3, Cynomolgus monkey MASP-2 D4-6 …; test: as above
[12] = target: T4, human MASP-2 D4-6 recombinant protein; test: as above
[13] = target: T5, rat MASP-2 D4-6 recombinant protein; test: as above
[14] = target: T5, rat MASP-2 D4-6 recombinant protein; test: SPR Biacore T200, antibody on Protein A chip, antigen as analyte, 1:1 fit
Protocol: as §2

T1 sequence (O00187 16-686 limits assumed): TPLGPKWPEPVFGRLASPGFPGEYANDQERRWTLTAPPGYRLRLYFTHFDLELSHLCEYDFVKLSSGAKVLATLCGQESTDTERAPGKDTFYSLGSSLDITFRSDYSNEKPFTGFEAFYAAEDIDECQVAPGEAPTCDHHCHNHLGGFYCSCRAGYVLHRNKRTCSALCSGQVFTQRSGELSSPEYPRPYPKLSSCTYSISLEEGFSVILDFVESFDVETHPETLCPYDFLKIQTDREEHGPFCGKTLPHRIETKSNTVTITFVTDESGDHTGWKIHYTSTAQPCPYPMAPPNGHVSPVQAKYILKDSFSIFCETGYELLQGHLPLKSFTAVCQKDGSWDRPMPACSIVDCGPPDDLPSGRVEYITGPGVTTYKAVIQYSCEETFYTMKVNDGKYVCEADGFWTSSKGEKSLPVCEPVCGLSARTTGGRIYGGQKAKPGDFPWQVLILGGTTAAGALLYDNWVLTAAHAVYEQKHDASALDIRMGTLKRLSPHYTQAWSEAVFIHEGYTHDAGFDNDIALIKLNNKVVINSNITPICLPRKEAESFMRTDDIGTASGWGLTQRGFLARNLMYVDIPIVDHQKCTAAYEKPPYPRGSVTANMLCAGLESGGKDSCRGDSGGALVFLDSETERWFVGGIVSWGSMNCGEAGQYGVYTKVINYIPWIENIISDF
T4 sequence (O00187 other isoform, or with tags, fused parts or gaps limits assumed): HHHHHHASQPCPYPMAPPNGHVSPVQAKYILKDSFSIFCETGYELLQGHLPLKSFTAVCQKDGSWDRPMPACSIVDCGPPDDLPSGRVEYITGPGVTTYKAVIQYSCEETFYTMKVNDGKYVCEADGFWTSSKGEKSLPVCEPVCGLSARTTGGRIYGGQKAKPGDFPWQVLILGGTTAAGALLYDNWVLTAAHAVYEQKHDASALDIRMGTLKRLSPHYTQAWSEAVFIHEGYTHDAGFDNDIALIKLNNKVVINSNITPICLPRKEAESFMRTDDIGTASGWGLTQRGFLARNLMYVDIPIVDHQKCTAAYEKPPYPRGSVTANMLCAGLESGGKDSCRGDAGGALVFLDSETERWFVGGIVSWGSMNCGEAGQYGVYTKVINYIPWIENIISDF
T5 sequence (Q9JJS8 other isoform, or with tags, fused parts or gaps limits assumed): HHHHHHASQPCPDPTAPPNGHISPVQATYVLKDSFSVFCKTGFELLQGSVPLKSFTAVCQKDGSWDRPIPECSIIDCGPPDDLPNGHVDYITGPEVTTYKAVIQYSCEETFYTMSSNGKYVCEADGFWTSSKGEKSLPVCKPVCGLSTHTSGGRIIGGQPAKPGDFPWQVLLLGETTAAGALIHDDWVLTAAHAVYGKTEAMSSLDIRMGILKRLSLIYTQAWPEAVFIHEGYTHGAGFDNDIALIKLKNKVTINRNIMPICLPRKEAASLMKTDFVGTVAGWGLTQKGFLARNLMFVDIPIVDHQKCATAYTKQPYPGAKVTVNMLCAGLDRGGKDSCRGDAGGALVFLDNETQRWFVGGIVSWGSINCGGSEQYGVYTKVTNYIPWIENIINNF
T3 sequence (O00187 other isoform, or with tags, fused parts or gaps limits assumed): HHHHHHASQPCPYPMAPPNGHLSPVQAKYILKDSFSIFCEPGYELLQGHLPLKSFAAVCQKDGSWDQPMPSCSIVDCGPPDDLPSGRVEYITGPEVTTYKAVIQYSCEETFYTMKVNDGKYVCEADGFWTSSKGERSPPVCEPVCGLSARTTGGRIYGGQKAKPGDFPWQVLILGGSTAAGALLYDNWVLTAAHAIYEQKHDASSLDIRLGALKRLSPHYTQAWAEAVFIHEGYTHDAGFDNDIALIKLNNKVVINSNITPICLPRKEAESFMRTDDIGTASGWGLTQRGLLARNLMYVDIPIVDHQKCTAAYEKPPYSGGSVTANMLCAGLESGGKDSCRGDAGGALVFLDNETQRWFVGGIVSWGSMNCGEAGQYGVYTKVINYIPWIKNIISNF
T2 sequence (Q91WP0 other isoform, or with tags, fused parts or gaps limits assumed): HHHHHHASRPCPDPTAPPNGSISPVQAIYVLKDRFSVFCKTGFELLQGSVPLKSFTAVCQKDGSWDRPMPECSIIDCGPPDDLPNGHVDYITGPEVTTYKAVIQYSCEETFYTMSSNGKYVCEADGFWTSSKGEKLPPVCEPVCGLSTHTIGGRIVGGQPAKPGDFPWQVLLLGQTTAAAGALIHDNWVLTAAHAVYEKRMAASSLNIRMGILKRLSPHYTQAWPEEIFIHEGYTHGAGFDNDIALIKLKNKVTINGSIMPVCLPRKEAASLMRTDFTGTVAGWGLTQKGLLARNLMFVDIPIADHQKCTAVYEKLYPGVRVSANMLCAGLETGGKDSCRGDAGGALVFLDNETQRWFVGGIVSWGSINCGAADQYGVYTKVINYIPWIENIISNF

Binder | IC50, inhibition of C3b deposition [1] [nM] | IC50, inhibition of C4b deposition [2] [nM] | Kd [7] [nM] | Kd [8] [nM] | Kd [9] [nM] | EC50 [10] [nM] | EC50 [11] [nM] | EC50 [12] [nM] | also measured
h16B11 H2K2 (antibody, V domains shown) VH: QLQLQESGPGLVKPSETLSLTCTVSGYSITSDYAWNWIRQPPGKGLEWIGYISYSGRTSYNPSLKSRVTISRDTSKNQFSLKLSSVTAADTAVYYCARHYGDYWGQGTLVTVSS VL: DIQMTQSPSSLSASVGDRVTITCRASQNVGTNVAWYQQKPGKAPKLLIYSASYRESGVPSRFSGSGSGTDFTLTISSLQPEDFATYFCQQFNTNPLTFGGGTKVEIK | 0.028 | 0.032 |  |  |  |  |  |  | 
h16B11 H2K3 (antibody, V domains shown) VH: QLQLQESGPGLVKPSETLSLTCTVSGYSITSDYAWNWIRQPPGKGLEWIGYISYSGRTSYNPSLKSRVTISRDTSKNQFSLKLSSVTAADTAVYYCARHYGDYWGQGTLVTVSS VL: DIQMTQSPSSLSASVGDRVTITCRASQNVGTNVAWYQQKPGKAPKALIYSASYRQSGVPSRFSGSGSGTDFTLTISSLQPEDFATYFCQQFNTNPLTFGGGTKVEIK | 0.018 | 0.012 |  |  |  |  |  |  | 
h16B11 H3K1 (antibody, V domains shown) VH: QLQLQESGPGLVKPSETLSLTCTVSGYSITSDYAWNWIRQPPGKGLEWIGYISYSGRTSYNPSLKSRVTISVDTSKNQFSLKLSSVTAADTAVYYCARHYGDYWGQGTLVTVSS VL: DIQMTQSPSSLSASVGDRVTITCRASQNVGTNVAWYQQKPGKAPKALIYSASYRESGVPSRFSGSGSGTDFTLTISSLQPEDFATYFCQQFNTNPLTFGGGTKVEIK | 0.06 | 0.098 |  |  |  |  |  |  | 
h16B11 H3K2 (antibody, V domains shown) VH: QLQLQESGPGLVKPSETLSLTCTVSGYSITSDYAWNWIRQPPGKGLEWIGYISYSGRTSYNPSLKSRVTISVDTSKNQFSLKLSSVTAADTAVYYCARHYGDYWGQGTLVTVSS VL: DIQMTQSPSSLSASVGDRVTITCRASQNVGTNVAWYQQKPGKAPKLLIYSASYRESGVPSRFSGSGSGTDFTLTISSLQPEDFATYFCQQFNTNPLTFGGGTKVEIK | 0.399 | 1.69 |  |  |  |  |  |  | 
h16B11 H3K3 (antibody, V domains shown) VH: QLQLQESGPGLVKPSETLSLTCTVSGYSITSDYAWNWIRQPPGKGLEWIGYISYSGRTSYNPSLKSRVTISVDTSKNQFSLKLSSVTAADTAVYYCARHYGDYWGQGTLVTVSS VL: DIQMTQSPSSLSASVGDRVTITCRASQNVGTNVAWYQQKPGKAPKALIYSASYRQSGVPSRFSGSGSGTDFTLTISSLQPEDFATYFCQQFNTNPLTFGGGTKVEIK | 0.112 | 0.44 |  |  |  |  |  |  | 
Fab antibody 16B11 (Fab, V domains shown, Purified murine Fab with Flag tag from the phage display library; also called mAb 16B11) VH: QMQLQESGPGLVKPSQSLSLTCTVTGYSITSDYAWNWIRQFPGNKLEWMGYISYSGRTSYNPSLKSRISITRDTSKNQFFLQLNSVTTEDTATYYCARHYGDYWGQGTTLTVSS VL: DIVMTQSQKLMSTSVGDRVSVTCKASQNVGTNVAWYQQKPGQSPKALIYSASYRNSGVPDRFTGSGSGTDFTLTISNVQSEDLAEYFCQQFNTNPLTFGSGTKLEIK |  |  |  |  |  |  |  |  | Kd [3]: 1.76 nM; koff [3]: 0.00811 s⁻¹; kon [3]: 4.61e+06 M⁻¹ s⁻¹; Kd [4]: 0.109 nM; koff [4]: 0.000181 s⁻¹; kon [4]: 1.66e+06 M⁻¹ s⁻¹; Kd [5]: 0.0407 nM; koff [5]: 8.75e-05 s⁻¹; kon [5]: 2.15e+06 M⁻¹ s⁻¹; Kd [6]: 5.06 nM; koff [6]: 0.00931 s⁻¹; kon [6]: 1.84e+06 M⁻¹ s⁻¹
Fab antibody 14F11 (Fab, V domains shown, Purified murine Fab with Flag tag from the phage display library; also called mAb 14F11) VH: QVQLQQSGPQLLRPGASVKISCKASGFSFTNHWIHWVKQRPGQGLEWIGMIDPSDSETGLNQKFRDKATLTVDKSSSTAYMHLNSPTSEDSAVYYCARLGIHDGYYIYAMDFWGQGTSVTVSS VL: NIVMTQSPKSMSMSVGERVTLSCKASENVGTYVSWYQQKPEQSPKLLIYGASNRYTGVPDRFTGSGSATDFTLTISSVQAEDLADYHCGQSYSYPLTFGAGTKLELK |  |  |  |  |  |  |  |  | Kd [3]: 18 nM; koff [3]: 1.16 s⁻¹; kon [3]: 6.44e+07 M⁻¹ s⁻¹; Kd [4]: 4.66 nM; Kd [5]: 0.172 nM; koff [5]: 0.000163 s⁻¹; kon [5]: 948000 M⁻¹ s⁻¹; Kd [6]: 0.546 nM; koff [6]: 0.00182 s⁻¹; kon [6]: 3.34e+06 M⁻¹ s⁻¹
chimeric antibody 1B2 (antibody, V domains shown) VH: DVQLQESGPGLVKPSQSLSLTCTVTGYSITSDYAWNWIRQFSGDKLEWMGYISYSGSTSYNPSLKSRISITRDTSKNQFFLHLSSVTTEDTATYFCARYWGDYWGHGTTLTVSS VL: DSVMTQSQKFMSTSVGDRVSVTCKASHNVGTNVAWFQQKPGQSPKGLIYSASYRSSGVPDRFTGSGSGTDFTLTISNVQSEDLAEYFCLQYNSNPLTFGGGTKLEVK |  |  | 632 | 0.078 | 0.002 | 0.947 | 0.014 | 0.015 | EC50 [13]: 1.44 nM
chimeric antibody 4F18 (antibody, V domains shown, to be rechecked) VH: EVQLQESGPGLVKPSQSLSLACTVTGYSITSDYAWHWIRQFPGNKLEWMGFISYSGRTNYNPPLTSRISITRDTSKNQFFLQLNSVTTEDTATYYCARSYDYWFGYWGQGTLVTVSA VL: NVLMTQTPLSLPVSLGDQASISCRSSQSLVHSNGNTYLEWYMQKPGQSPKLLIYTVSRRFSGVPDRFSGSGSGTDFTLKISRVEAEDLGVYYCFQGSHVPVTFGAGTKLELK |  |  | 218 | 24.8 | 0.108 | 0.287 | 0.003 | 0.004 | 
chimeric antibody 10L3 (antibody, V domains shown) VH: DVQLQESGPGLVKPSQSLSLTCTVTGYSITSDYAWNWIRQFPGNKLEWMGYISYSGRTSYNPSLKSRISITRDTSKNQFFLQLNSVTTEDTATYYCAKLGGGHGMDYWGQGTSVTVSS VL: IVMTQSQKFMSTSVGDRVSVTCKASQNVDTNVAWYQQKPGQSPKALIYSASYRYSGVPDRFTGSGSGTDFTLTISNVQSEDLAEYFCLQYNSYLTFGSGTKLELK |  |  | 214 | 1.29 | 0.07 | 30.9 | 0.016 | 0.022 | EC50 [13]: 30.2 nM
chimeric antibody 16A17 (antibody, V domains shown) VH: DVQLQESGPGLVKPSQSLSLTCTVTGYSITSDYAWKWIRQFPGNKLEWMGYISYSGSTSYHPSLKGRISITRDTSKNQFFLQLNSVTADDTATYYCAILGYYAMDYWGQGTSVTVSS VL: DIVMTQSQKFMSTSVGDRVSITCKASQNVRVDVAWYQQKSGQSPRALIYLASNRHTGVPDRFTGSGSGTDFTLTITNVQSEDLADYFCPQHWSYPLTFGGGTKLEIK |  |  | 487 | 0.063 | 0.008 | 1.97 | 0.014 | 0.014 | EC50 [13]: 4.3 nM
chimeric antibody 28O14 (antibody, V domains shown) VH: QVQLQQSGTELARPGASVRMSCKASGYTFRSHTMHWVKQRPGQGLEWIGYINPSTGYINYNQKFKDKATLTADKSSSTAYMQLSSLTSEDSAVYYCARSNYSYYYGMDYWGQGTSVTVSS VL: DIVMTQSHKFMSTSVGDRVTITCKASQDVNTAVAWYQQKPGQSPKLLIYSASYRYTGVPDRFTGSGSGTDFTFTISSLQAEDLAVYYCQQHYNIPLTFGAGTKLELK |  |  | 767 | 0.01 | 0.09 |  | 0.043 | 0.033 | Kd [14]: 162 nM

Source: patent US20240067751A1 (KEYMED BIOSCIENCES, published 2024)
